The experiment concerns the target IL-6 receptor on U266 human myeloma cells (human) (UniProt P08887). Description: cell-based or functional assay.

IL-6 receptor on U266 human myeloma cells (human), sequence (P08887 20-468): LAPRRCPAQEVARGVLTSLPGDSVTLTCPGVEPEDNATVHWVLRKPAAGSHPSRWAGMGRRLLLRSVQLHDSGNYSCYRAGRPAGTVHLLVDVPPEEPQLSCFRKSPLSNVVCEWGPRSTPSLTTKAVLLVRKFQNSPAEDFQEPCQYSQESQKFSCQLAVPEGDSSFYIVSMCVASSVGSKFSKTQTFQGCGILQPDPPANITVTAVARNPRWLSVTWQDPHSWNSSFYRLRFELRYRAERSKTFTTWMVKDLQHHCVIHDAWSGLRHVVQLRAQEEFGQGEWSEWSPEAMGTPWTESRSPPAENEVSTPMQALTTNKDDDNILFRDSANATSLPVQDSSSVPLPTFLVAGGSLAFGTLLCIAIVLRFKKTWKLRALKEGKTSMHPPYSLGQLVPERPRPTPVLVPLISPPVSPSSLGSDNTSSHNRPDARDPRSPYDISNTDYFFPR

Regarding Sant7, IL-6 superantagonist (ligand), the reduction of constitutive STAT3 DNA-binding (EMSA) in U266 cells stood at 70%.

Values taken from patent publication US20070060521A1.
